Experimental findings from patent publication US20060294618A1 (CORNELL RESEARCH FOUNDATION, published 2006) are described below.

Experiment [1] concerns the target T1, TEV-HAT VPg, yeast two-hybrid bait fusion protein expressed from pEG202 (Tobacco etch virus, strain HAT, UniProt P0A7C2 1-202; P04517 1850-2037).
T1 sequence (looked up): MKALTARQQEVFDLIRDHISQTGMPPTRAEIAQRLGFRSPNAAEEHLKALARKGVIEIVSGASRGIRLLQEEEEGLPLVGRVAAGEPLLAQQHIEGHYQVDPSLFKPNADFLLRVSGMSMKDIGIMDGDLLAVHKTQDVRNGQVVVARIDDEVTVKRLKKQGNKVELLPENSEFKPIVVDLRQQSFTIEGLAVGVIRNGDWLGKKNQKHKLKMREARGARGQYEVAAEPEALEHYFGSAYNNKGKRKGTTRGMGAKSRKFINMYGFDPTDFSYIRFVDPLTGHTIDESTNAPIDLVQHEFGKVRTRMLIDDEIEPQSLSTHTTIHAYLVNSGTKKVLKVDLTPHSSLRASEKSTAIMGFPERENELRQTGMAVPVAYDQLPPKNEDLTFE
As to the kind of experiment: yeast two-hybrid, beta-galactosidase assay.
Source text: Bait plasmid pEG202 was used to express the fusion protein TEV-HAT VPg. The prey plasmid pJG4-5 was used to express pepper eIF4E. pEG202: Pto and PJG4-5:AvrPto were served as a positive control.

Experiment [2] addresses T2, GST-VPgHAT (Tobacco etch virus, strain HAT, UniProt P04517 1850-2037).
T2 construct: Immobilized on glutathione-Sepharose 4B beads; also called TEV-HAT VPg (GST fusion); not shown: glutathione S-transferase (GST)
T2 sequence (looked up): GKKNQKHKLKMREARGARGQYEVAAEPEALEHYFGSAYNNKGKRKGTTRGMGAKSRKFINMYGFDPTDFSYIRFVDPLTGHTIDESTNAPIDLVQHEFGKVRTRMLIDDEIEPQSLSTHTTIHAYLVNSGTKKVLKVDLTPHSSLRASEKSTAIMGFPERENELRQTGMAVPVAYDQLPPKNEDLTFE
As to the kind of experiment: GST pull-down, 35S-labeled in vitro-translated eIF4E.

Where a chain is given by its changes, count along the chain named.

B1: eIF4E-234 mutant translation initiation factor eIF4E (Capsicum chinense PI 159234, pvr1 allele), yeast two-hybrid prey fusion expressed from pJG4-5 (other)
chain: MATAEMEKTTTFDEAEKVKLNANEADDEVEEGEIVEETDDTTSYLSKEIAAKHPLEHSWTFWFDNTVAKSRQAAWGSSLRNVYTFSTVEDFWGAYNNIHHPSKLVVRADLHCFKHKIEPKWEDPVCANGGTWKMSFSKGKSDTSWLYTLLAMIGHQFDHEDEICGAVVSVRGKGEKISLWTKNAANETAQVSIGKQWKQFLDYSDSVGFIFHDDAKRLDRNAKNRYTV
notes: not shown: fusion partner encoded by prey plasmid pJG4-5
On to B1, for which the binding result in experiment [1] is on record as “no binding”.

B2: eIF4E-DEMP (pvr2^2 / pvr1^2), 35S-labeled, translated in vitro from pET16b (other)
chain: B1 chain with A51T, T66P, V67E, R71K, L79R, R107G, D109N
modifications: 35S-labeled (in vitro translation in reticulocyte lysate)
notes: also called DEMP (pvr1^2); resistant allele
On to B2, for which, in experiment [2], the binding result is reported as “no binding”.

B3: eIF4E-YY (pvr2^1 / pvr1^1), 35S-labeled, translated in vitro from pET16b (other)
chain: B1 chain with A51T, T66P, V67E, R71K, L79R, R107G
modifications: 35S-labeled (in vitro translation in reticulocyte lysate)
notes: also called YY (pvr1^1); resistant allele
Consider B3, for which the binding result in experiment [2] was “no binding”.

B4: eIF4E-234 (pvr1), 35S-labeled, translated in vitro from pET16b (other)
chain: B1 chain
modifications: 35S-labeled (in vitro translation in reticulocyte lysate)
notes: also called resistant allele
B4: the binding result in experiment [2] is on record as “no binding”.
